Data: the supplement of paper PMC10266784

B1: library; numbered along this chain (parent)
chain: MAAAAAAAAEQQSSNGPVKKSMREKAVERRSVNKEHNSNFKAGYIPIDEDRLHKTGLRGRKGNLAICVIILLFILAVINLIITLVIWAVIRIGPNGCDSMEFHESGLLRFKQVSDMGVIHPLYKSTVGGRRNENLVITGNNQPIVFQQGTTKLSVENNKTSITSDIGMQFFDPRTQNILFSTDYETHEFHLPSGVKSLNVQKASTERITSNATSDLNIKVDGRAIVRGNEGVFIMGKTIEFHMGGNMELKAENSIILNGSVMVSTTRLPSSSSGDQLGSGDWVRYKLCMCADGTLFKVQVTSQNMGCQISDNPCGNTH

Variants of: B1
Test: SGCB cell-surface expression functional score (HA stain, bin4 vs bin1, normalised to synonymous) (log10 ratio); higher = more cell-surface SGCB (functional)
Outline: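 Using lentivirus at MOI <0.1, HA-tagged, YFP-fused human beta-sarcoglycan codon-saturation libraries were put into HEK293 cells with stable alpha-, gamma- and delta-sarcoglycan expression, in duplicate transductions. YFP-positive cells were collected by sorting 72 hours later, grown 5–7 days, stained on ice with Alexa Fluor 647 anti-HA, fixed, sorted into four 5% intensity bins and amplicon-sequenced. The functional score takes the median, across codons and transductions, of the log ratio of highest-bin to lowest-bin variant frequency. Within each section, synonymous variants were scaled to mean 0, SD 0.5.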

Variant	SGCB cell-surface expression functional score (log10)
MAAAAAAAAEQQSSNGPVKKSMREKAVERRSVNKEHNSNFKAGYIPIDEDRLHKTGLRGRKGNLAICVIILLFILAVINLIITLVIWAVIRIGPNGCDSMEFHESGLLRFKQVSDMGVIHPLYKSTVGGRRNENLVITGNNQPIVFQQGTTKLSVENNKTSITSDIGMQFFDPRTQNILFSTDYETHEFHLPSGVKSLNVQKASTERITSNATSDLNIKVDGRAIVRGNEGVFIMGKTIEFHMGGNMELKVENSIILNGSVMVSTTRLPSSSSGDQLGSGDWVRYKLCMCADGTLFKVQVTSQNMGCQISDNPCGNTH [A251V]	0.46
MAAAAAAAAEQQSSNGPVKKSMREKAVERRSVNKEHNSNFKAGYIPIDEDRLHKTGLRGRKGNLAICVIILLFILAVINLIITLVIWAVIRIGPNGCDSMEFHESGLLRFKQVSDMGVIHPLYKSTVGGRRNENLVITGNNQPIVFQQGTTKLSVENNKTSITSDIGMQFFDPRTQNILFSTDYETHEFHLPSGVKSLNVQKASTERITSNATSDLNIKVDGRAIVRGNEGVFIMGKTIEFHMGGNMELKYENSIILNGSVMVSTTRLPSSSSGDQLGSGDWVRYKLCMCADGTLFKVQVTSQNMGCQISDNPCGNTH [A251Y]	-1.33
MAAAAAAAAEQQSSNGPVKKSMREKAVERRSVNKEHNSNFKAGYIPIDEDRLHKTGLRGRKGNLAICVIILLFILAVINLIITLVIWAVIRIGPNGCDSMEFHESGLLRFKQVSDMGVIHPLYKSTVGGRRNENLVITGNNQPIVFQQGTTKLSVENNKTSITSDIGMQFFDPRTQNILFSTDYETHEFHLPSGVKSLNVQKASTERITSNATSDLNIKVDGRAIVRGNEGVFIMGKTIEFHMGGNMELKWENSIILNGSVMVSTTRLPSSSSGDQLGSGDWVRYKLCMCADGTLFKVQVTSQNMGCQISDNPCGNTH [A251W]	-1.85
MAAAAAAAAEQQSSNGPVKKSMREKAVERRSVNKEHNSNFKAGYIPIDEDRLHKTGLRGRKGNLAICVIILLFILAVINLIITLVIWAVIRIGPNGCDSMEFHESGLLRFKQVSDMGVIHPLYKSTVGGRRNENLVITGNNQPIVFQQGTTKLSVENNKTSITSDIGMQFFDPRTQNILFSTDYETHEFHLPSGVKSLNVQKASTERITSNATSDLNIKVDGRAIVRGNEGVFIMGKTIEFHMGGNMELKSENSIILNGSVMVSTTRLPSSSSGDQLGSGDWVRYKLCMCADGTLFKVQVTSQNMGCQISDNPCGNTH [A251S]	0.32
MAAAAAAAAEQQSSNGPVKKSMREKAVERRSVNKEHNSNFKAGYIPIDEDRLHKTGLRGRKGNLAICVIILLFILAVINLIITLVIWAVIRIGPNGCDSMEFHESGLLRFKQVSDMGVIHPLYKSTVGGRRNENLVITGNNQPIVFQQGTTKLSVENNKTSITSDIGMQFFDPRTQNILFSTDYETHEFHLPSGVKSLNVQKASTERITSNATSDLNIKVDGRAIVRGNEGVFIMGKTIEFHMGGNMELKRENSIILNGSVMVSTTRLPSSSSGDQLGSGDWVRYKLCMCADGTLFKVQVTSQNMGCQISDNPCGNTH [A251R]	-1.16
MAAAAAAAAEQQSSNGPVKKSMREKAVERRSVNKEHNSNFKAGYIPIDEDRLHKTGLRGRKGNLAICVIILLFILAVINLIITLVIWAVIRIGPNGCDSMEFHESGLLRFKQVSDMGVIHPLYKSTVGGRRNENLVITGNNQPIVFQQGTTKLSVENNKTSITSDIGMQFFDPRTQNILFSTDYETHEFHLPSGVKSLNVQKASTERITSNATSDLNIKVDGRAIVRGNEGVFIMGKTIEFHMGGNMELKTENSIILNGSVMVSTTRLPSSSSGDQLGSGDWVRYKLCMCADGTLFKVQVTSQNMGCQISDNPCGNTH [A251T]	0.52
MAAAAAAAAEQQSSNGPVKKSMREKAVERRSVNKEHNSNFKAGYIPIDEDRLHKTGLRGRKGNLAICVIILLFILAVINLIITLVIWAVIRIGPNGCDSMEFHESGLLRFKQVSDMGVIHPLYKSTVGGRRNENLVITGNNQPIVFQQGTTKLSVENNKTSITSDIGMQFFDPRTQNILFSTDYETHEFHLPSGVKSLNVQKASTERITSNATSDLNIKVDGRAIVRGNEGVFIMGKTIEFHMGGNMELKAFNSIILNGSVMVSTTRLPSSSSGDQLGSGDWVRYKLCMCADGTLFKVQVTSQNMGCQISDNPCGNTH [E252F]	1.22
MAAAAAAAAEQQSSNGPVKKSMREKAVERRSVNKEHNSNFKAGYIPIDEDRLHKTGLRGRKGNLAICVIILLFILAVINLIITLVIWAVIRIGPNGCDSMEFHESGLLRFKQVSDMGVIHPLYKSTVGGRRNENLVITGNNQPIVFQQGTTKLSVENNKTSITSDIGMQFFDPRTQNILFSTDYETHEFHLPSGVKSLNVQKASTERITSNATSDLNIKVDGRAIVRGNEGVFIMGKTIEFHMGGNMELKACNSIILNGSVMVSTTRLPSSSSGDQLGSGDWVRYKLCMCADGTLFKVQVTSQNMGCQISDNPCGNTH [E252C]	0.5
MAAAAAAAAEQQSSNGPVKKSMREKAVERRSVNKEHNSNFKAGYIPIDEDRLHKTGLRGRKGNLAICVIILLFILAVINLIITLVIWAVIRIGPNGCDSMEFHESGLLRFKQVSDMGVIHPLYKSTVGGRRNENLVITGNNQPIVFQQGTTKLSVENNKTSITSDIGMQFFDPRTQNILFSTDYETHEFHLPSGVKSLNVQKASTERITSNATSDLNIKVDGRAIVRGNEGVFIMGKTIEFHMGGNMELKADNSIILNGSVMVSTTRLPSSSSGDQLGSGDWVRYKLCMCADGTLFKVQVTSQNMGCQISDNPCGNTH [E252D]	-0.26
MAAAAAAAAEQQSSNGPVKKSMREKAVERRSVNKEHNSNFKAGYIPIDEDRLHKTGLRGRKGNLAICVIILLFILAVINLIITLVIWAVIRIGPNGCDSMEFHESGLLRFKQVSDMGVIHPLYKSTVGGRRNENLVITGNNQPIVFQQGTTKLSVENNKTSITSDIGMQFFDPRTQNILFSTDYETHEFHLPSGVKSLNVQKASTERITSNATSDLNIKVDGRAIVRGNEGVFIMGKTIEFHMGGNMELKAANSIILNGSVMVSTTRLPSSSSGDQLGSGDWVRYKLCMCADGTLFKVQVTSQNMGCQISDNPCGNTH [E252A]	0.53
